Source: article PMC4289617

Target: WDR5Δ23 (WD repeat domain 5, residues 24–334) (human) (UniProt P61964)
Test: fluorescence polarisation

Substance	IC50	Ki
Ac-2mer (Ac-3mer without Ala3) (peptide)	125 µM	27 µM
CHO-3mer (CHO-ARA-NH2) (peptide)	14.9 µM	3.2 µM
H2N-3mer (H2N-ARA-NH2) (peptide)	> 300 µM	> 50 µM
H3-3mer (H2N-ART-NH2) (peptide)	127 µM	27.3 µM
Δ1 (Ac-AR-(N-Me)A-NH2) (peptide)	> 300 µM	> 50 µM
Δ2b (Ac-ARA-CONMe2) (peptide)	30 µM	6.5 µM

Now those with a lower IC50, led by results:

IC50	Ki	Substance
7.3 µM	1.6 µM	Δ2c (Ac-ARA-COOCH3) (peptide)
0.7 µM	0.15 µM	Δ2a (Ac-ARA-CONHMe) (peptide)
0.54 µM	0.12 µM	Ac-3mer (Ac-ARA-NH2) (peptide)
0.08 µM	0.02 µM	Ac-H3-3mer (Ac-ART-NH2) (peptide)
